Key:
[1] = target: T1, Recombinant Human DLL4 (delta-like protein 4) (human, UniProt Q9NR61 27-524); experiment: ELISA, DLL4 coated on plate, Fab at 25 nM (2-fold dilution series), absorbance at 450 nm
T1 construct: Bought recombinant human DLL4 coated on the ELISA plate; also called rHuman DLL4

[2] = target: T1, Recombinant Human DLL4 (delta-like …); experiment: ELISA, DLL4 coated on plate, Fab at 50 nM (2-fold dilution series), absorbance at 450 nm
[3] = target: T1, Recombinant Human DLL4 (delta-like …); experiment: ELISA, DLL4 coated on plate, Fab at 100 nM (2-fold dilution series), absorbance at 450 nm
[4] = target: T1, Recombinant Human DLL4 (delta-like …); experiment: ELISA, DLL4 coated on plate, Fab at 12.5 nM (2-fold dilution series), absorbance at 450 nm

B1: Fab VH5-51_IGHD5-18*01>3_IGHJ4*01 G100K/G104T G24L/S28R/G35V (KT LRV) & V3-4_IGLJ1*01 V91L/S96P S52M (Fab, V domains shown)
VH: EVQLVQSGAEVKKPGESLKISCKTSGYRFTSYWIVWVRQMPGKGLEWMGIIYPGDSDTRYSPSFQGQVTISADKSISTAYLQWSSLKASDTAMYYCARRKYSYTYDYFDYWGQGTLVTVSS
VL: QTVVTQEPSFSVSPGGTVTLTCGLSSGSVSTSYYPSWYQQTPGQAPRTLIYMTNTRSSGVPDRFSGSILGNKAALTITGAQADDESDYYCLLYMGPGISYVFGTGTKVTVL
notes: Fab; Expressed in E. coli with CH1 (plasmid A, His6 and Flag tags) and lambda CL (plasmid E); also called G100K/G104T G24L/S28R/G35V & V91L/S96P S52M
With B1 the ELISA signal [1] was 0.59, the ELISA signal [2] was 0.8 and the ELISA signal [3] was 1.01. For the same binder, the ELISA signal [4] was 0.41.

B2: Fab VH5-51_IGHD5-18*01>3_IGHJ4*01 G100K/G104T G24L/S28R/G35V (KT LRV) & V3-4_IGLJ1*01 V91L/S96P S52Q (Fab, V domains shown)
VH: EVQLVQSGAEVKKPGESLKISCKTSGYRFTSYWIVWVRQMPGKGLEWMGIIYPGDSDTRYSPSFQGQVTISADKSISTAYLQWSSLKASDTAMYYCARRKYSYTYDYFDYWGQGTLVTVSS
VL: QTVVTQEPSFSVSPGGTVTLTCGLSSGSVSTSYYPSWYQQTPGQAPRTLIYQTNTRSSGVPDRFSGSILGNKAALTITGAQADDESDYYCLLYMGPGISYVFGTGTKVTVL
notes: Fab; Expressed in E. coli with CH1 (plasmid A, His6 and Flag tags) and lambda CL (plasmid E); also called G100K/G104T G24L/S28R/G35V & V91L/S96P S52Q
B2 was tested, and the ELISA signal [1] was 0.67, the ELISA signal [2] was 0.81 and the ELISA signal [3] was 0.96. The ELISA signal [4] was 0.47.

B3: Fab VH5-51_IGHD5-18*01>3_IGHJ4*01 G100K/G104T G24L/S28R/G35V (KT LRV) & V3-4_IGLJ1*01 V91L/S96P S52T (Fab, V domains shown)
VH: EVQLVQSGAEVKKPGESLKISCKTSGYRFTSYWIVWVRQMPGKGLEWMGIIYPGDSDTRYSPSFQGQVTISADKSISTAYLQWSSLKASDTAMYYCARRKYSYTYDYFDYWGQGTLVTVSS
VL: QTVVTQEPSFSVSPGGTVTLTCGLSSGSVSTSYYPSWYQQTPGQAPRTLIYTTNTRSSGVPDRFSGSILGNKAALTITGAQADDESDYYCLLYMGPGISYVFGTGTKVTVL
notes: Fab; Expressed in E. coli with CH1 (plasmid A, His6 and Flag tags) and lambda CL (plasmid E); also called G100K/G104T G24L/S28R/G35V & V91L/S96P S52T
B3 gave an ELISA signal [1] of 0.62, an ELISA signal [2] of 0.79 and an ELISA signal [3] of 0.99. It also gave an ELISA signal [4] of 0.41.

B4: Fab VH5-51_IGHD5-18*01>3_IGHJ4*01 G100K/G104T G24T/S28R/G35V (KT TRV) & V3-4_IGLJ1*01 V91L/S96P (LP) (Fab, V domains shown)
VH: EVQLVQSGAEVKKPGESLKISCKTSGYRFTSYWIVWVRQMPGKGLEWMGIIYPGDSDTRYSPSFQGQVTISADKSISTAYLQWSSLKASDTAMYYCARRKYSYTYDYFDYWGQGTLVTVSS
VL: QTVVTQEPSFSVSPGGTVTLTCGLSSGSVSTSYYPSWYQQTPGQAPRTLIYSTNTRSSGVPDRFSGSILGNKAALTITGAQADDESDYYCLLYMGPGISYVFGTGTKVTVL
notes: Fab; Expressed in E. coli with CH1 (plasmid A, His6 and Flag tags) and lambda CL (plasmid E); also called H:KT TRV & L:LP
B4 showed an ELISA signal [1] of 0.58, an ELISA signal [2] of 0.81 and an ELISA signal [3] of 1. For the same binder, the ELISA signal [4] was 0.45.

B5: Fab VH5-51_IGHD5-18*01>3_IGHJ4*01 G100K/G104T G24T/S28R/G35V (KT TRV) & V3-4_IGLJ1*01 V91L/S96P S52G (LP S52G) (Fab, V domains shown)
VH: EVQLVQSGAEVKKPGESLKISCKTSGYRFTSYWIVWVRQMPGKGLEWMGIIYPGDSDTRYSPSFQGQVTISADKSISTAYLQWSSLKASDTAMYYCARRKYSYTYDYFDYWGQGTLVTVSS
VL: QTVVTQEPSFSVSPGGTVTLTCGLSSGSVSTSYYPSWYQQTPGQAPRTLIYGTNTRSSGVPDRFSGSILGNKAALTITGAQADDESDYYCLLYMGPGISYVFGTGTKVTVL
notes: Fab; Expressed in E. coli with CH1 (plasmid A, His6 and Flag tags) and lambda CL (plasmid E); also called H:KT TRV & L:LP S52G
B5 showed an ELISA signal [1] of 0.9, an ELISA signal [2] of 1.02 and an ELISA signal [3] of 1.14. For the same binder, the ELISA signal [4] was 0.63.

B6: Fab VH5-51_IGHD5-18*01>3_IGHJ4*01 G100K/G104T G24T/S28R/G35V (KT TRV) & V3-4_IGLJ1*01 V91L/S96P S52L (Fab, V domains shown)
VH: EVQLVQSGAEVKKPGESLKISCKTSGYRFTSYWIVWVRQMPGKGLEWMGIIYPGDSDTRYSPSFQGQVTISADKSISTAYLQWSSLKASDTAMYYCARRKYSYTYDYFDYWGQGTLVTVSS
VL: QTVVTQEPSFSVSPGGTVTLTCGLSSGSVSTSYYPSWYQQTPGQAPRTLIYLTNTRSSGVPDRFSGSILGNKAALTITGAQADDESDYYCLLYMGPGISYVFGTGTKVTVL
notes: Fab; Expressed in E. coli with CH1 (plasmid A, His6 and Flag tags) and lambda CL (plasmid E); also called H:KT TRV & L:LP S52L
With B6 the ELISA signal [1] was 0.58, the ELISA signal [2] was 0.78 and the ELISA signal [3] was 1.02. For the same binder, the ELISA signal [4] was 0.43.

B7: Fab VH5-51_IGHD5-18*01>3_IGHJ4*01 G100K/G104T G24T/S28R/G35V (KT TRV) & V3-4_IGLJ1*01 V91L/S96P S52Y (Fab, V domains shown)
VH: EVQLVQSGAEVKKPGESLKISCKTSGYRFTSYWIVWVRQMPGKGLEWMGIIYPGDSDTRYSPSFQGQVTISADKSISTAYLQWSSLKASDTAMYYCARRKYSYTYDYFDYWGQGTLVTVSS
VL: QTVVTQEPSFSVSPGGTVTLTCGLSSGSVSTSYYPSWYQQTPGQAPRTLIYYTNTRSSGVPDRFSGSILGNKAALTITGAQADDESDYYCLLYMGPGISYVFGTGTKVTVL
notes: Fab; Expressed in E. coli with CH1 (plasmid A, His6 and Flag tags) and lambda CL (plasmid E); also called H:KT TRV & L:LP S52Y
For B7, the ELISA signal [1] was 0.56, the ELISA signal [2] was 0.72 and the ELISA signal [3] was 0.9. The ELISA signal [4] was 0.41.

B8: Fab VH5-51_IGHD5-18*01>3_IGHJ4*01 G100K/G104T S28R (KT S28R) & V3-4_IGLJ1*01 (wildtype) (Fab, V domains shown)
VH: EVQLVQSGAEVKKPGESLKISCKGSGYRFTSYWIGWVRQMPGKGLEWMGIIYPGDSDTRYSPSFQGQVTISADKSISTAYLQWSSLKASDTAMYYCARRKYSYTYDYFDYWGQGTLVTVSS
VL: QTVVTQEPSFSVSPGGTVTLTCGLSSGSVSTSYYPSWYQQTPGQAPRTLIYSTNTRSSGVPDRFSGSILGNKAALTITGAQADDESDYYCVLYMGSGISYVFGTGTKVTVL
notes: Fab; Expressed in E. coli with CH1 (plasmid A, His6 and Flag tags) and lambda CL (plasmid E); also called H:KT S28R & L:wt
Work on B8 yielded an ELISA signal [1] of 0.2, an ELISA signal [2] of 0.23 and an ELISA signal [3] of 0.26. It also gave an ELISA signal [4] of 0.18.

B9: Fab VH5-51_IGHD5-18*01>3_IGHJ4*01 G104T & V3-4_IGLJ1*01 (wildtype) (Fab, V domains shown)
VH: EVQLVQSGAEVKKPGESLKISCKGSGYSFTSYWIGWVRQMPGKGLEWMGIIYPGDSDTRYSPSFQGQVTISADKSISTAYLQWSSLKASDTAMYYCARRGYSYTYDYFDYWGQGTLVTVSS
VL: QTVVTQEPSFSVSPGGTVTLTCGLSSGSVSTSYYPSWYQQTPGQAPRTLIYSTNTRSSGVPDRFSGSILGNKAALTITGAQADDESDYYCVLYMGSGISYVFGTGTKVTVL
notes: Fab; Expressed in E. coli with CH1 (plasmid A, His6 and Flag tags) and lambda CL (plasmid E); also called G104T & Wildtype
B9 showed an ELISA signal [1] of 0.18, an ELISA signal [2] of 0.17 and an ELISA signal [3] of 0.17. It also gave an ELISA signal [4] of 0.19.

Reference: US20120316071A1 (published 2012)
